In paper PMC9482650, “Quantitative fragmentomics allow affinity mapping of interactomes” (Nature Communications, 2022):

B1: MAS1, P04201 (peptide)
chain: CNTVTVETVV
B2: PTEN, P60484 (peptide)
chain: DEDQHTQITKV
B3: CFTR, P13569 (peptide)
chain: TEEEVQDTRL

Experiments:
Experiment in all cases: holdup assay
Design in all cases: key: below the threshold = too weak to quantify, mostly under pKd 3.1 to 4
Settings in all cases: plain residues with an end cap or a label only (N-terminal biotin on a linker: ttds)
IL16_4, Q14005 = molecular target: IL16_4, Q14005
Sequence of IL16_4, Q14005 (Q14005 1229-1329): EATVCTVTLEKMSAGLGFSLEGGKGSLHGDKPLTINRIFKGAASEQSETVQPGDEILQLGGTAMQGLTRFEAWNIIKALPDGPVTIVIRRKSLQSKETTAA

PARD3B_1, Q8TEW8 = molecular target: T1, PARD3B_1, Q8TEW8
T1 sequence (Q8TEW8 196-299, limits assumed, looked up): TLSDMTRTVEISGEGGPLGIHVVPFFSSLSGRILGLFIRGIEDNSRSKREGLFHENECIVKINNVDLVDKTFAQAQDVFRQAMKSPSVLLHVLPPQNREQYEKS

LDB3, O75112 = molecular target: LDB3, O75112
Sequence of LDB3, O75112 (O75112 1-94): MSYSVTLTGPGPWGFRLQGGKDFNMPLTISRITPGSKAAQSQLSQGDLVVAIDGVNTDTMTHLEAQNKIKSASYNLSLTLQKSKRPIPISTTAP

FRMPD4, Q14CM0 = molecular target: FRMPD4, Q14CM0
Sequence of FRMPD4, Q14CM0 (Q14CM0 67-160): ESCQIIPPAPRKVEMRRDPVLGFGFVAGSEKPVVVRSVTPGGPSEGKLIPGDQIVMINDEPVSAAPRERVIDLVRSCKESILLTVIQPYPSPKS

NOS1, P29475 = molecular target: NOS1, P29475
Sequence of NOS1, P29475 (P29475 9-101): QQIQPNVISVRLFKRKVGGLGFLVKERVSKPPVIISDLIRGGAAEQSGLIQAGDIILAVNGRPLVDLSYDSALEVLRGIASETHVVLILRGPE

Inadl_3, Q8NI35 = molecular target: Inadl_3, Q8NI35
Sequence of Inadl_3, Q8NI35 (Q8NI35 359-469): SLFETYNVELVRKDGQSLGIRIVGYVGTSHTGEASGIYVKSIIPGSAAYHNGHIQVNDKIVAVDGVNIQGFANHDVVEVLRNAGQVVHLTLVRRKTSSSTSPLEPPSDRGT

GRIP1_5, Q9Y3R0 = molecular target: T2, GRIP1_5, Q9Y3R0
T2 sequence (Q9Y3R0 568-668, limits assumed, looked up): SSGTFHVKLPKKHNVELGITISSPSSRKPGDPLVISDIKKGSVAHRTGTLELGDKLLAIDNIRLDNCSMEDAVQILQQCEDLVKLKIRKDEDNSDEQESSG

FRMPD1, Q5SYB0 = molecular target: T3, FRMPD1, Q5SYB0
T3 sequence (Q5SYB0 52-145, limits assumed, looked up): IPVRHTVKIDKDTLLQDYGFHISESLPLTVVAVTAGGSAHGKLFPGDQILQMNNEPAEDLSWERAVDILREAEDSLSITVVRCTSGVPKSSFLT

MAGI2_6, Q86UL8 = molecular target: MAGI2_6, Q86UL8
Sequence of MAGI2_6, Q86UL8 (Q86UL8 1141-1229): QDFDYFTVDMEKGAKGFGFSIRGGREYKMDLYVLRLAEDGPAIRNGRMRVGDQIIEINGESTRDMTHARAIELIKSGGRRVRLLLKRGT

PDLIM1, O00151 = molecular target: PDLIM1, O00151
Sequence of PDLIM1, O00151 (O00151 1-87): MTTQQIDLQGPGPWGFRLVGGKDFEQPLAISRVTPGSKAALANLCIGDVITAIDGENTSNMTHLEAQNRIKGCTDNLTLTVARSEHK

CARD11, Q9BXL7 = molecular target: T4, CARD11, Q9BXL7
T4 sequence (Q9BXL7 662-765, limits assumed, looked up): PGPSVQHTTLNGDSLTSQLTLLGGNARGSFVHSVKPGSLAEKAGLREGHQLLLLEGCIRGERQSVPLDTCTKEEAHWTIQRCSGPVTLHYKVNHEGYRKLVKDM

MAGI2_3, Q86UL8 = molecular target: MAGI2_3, Q86UL8
Sequence of MAGI2_3, Q86UL8 (Q86UL8 600-682): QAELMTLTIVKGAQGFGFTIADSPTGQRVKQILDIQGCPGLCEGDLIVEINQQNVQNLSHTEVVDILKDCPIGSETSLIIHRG

DLG3_1, Q92796 = molecular target: T5, DLG3_1, Q92796
T5 sequence (Q92796 125-227, limits assumed, looked up): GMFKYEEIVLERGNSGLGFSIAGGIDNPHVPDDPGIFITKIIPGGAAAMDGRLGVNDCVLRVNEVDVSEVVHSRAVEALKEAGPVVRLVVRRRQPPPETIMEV

MPDZ_5, O75970 = molecular target: T6, MPDZ_5, O75970
T6 sequence (O75970 695-796, limits assumed, looked up): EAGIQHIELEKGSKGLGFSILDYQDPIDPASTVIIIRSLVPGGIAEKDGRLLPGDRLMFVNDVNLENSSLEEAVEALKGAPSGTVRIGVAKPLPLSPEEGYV

PDZRN3_1, Q9UPQ7 = molecular target: T7, PDZRN3_1, Q9UPQ7
T7 sequence (Q9UPQ7 244-349, limits assumed, looked up): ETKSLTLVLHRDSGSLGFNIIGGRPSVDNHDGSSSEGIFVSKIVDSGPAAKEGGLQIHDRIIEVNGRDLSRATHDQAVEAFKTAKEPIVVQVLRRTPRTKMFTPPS

LIN7A, O14910 = molecular target: T8, LIN7A, O14910
T8 sequence (O14910 103-200, limits assumed, looked up): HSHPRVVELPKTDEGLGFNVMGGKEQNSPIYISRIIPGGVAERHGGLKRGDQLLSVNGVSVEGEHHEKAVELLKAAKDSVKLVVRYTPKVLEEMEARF

MPDZ_12, O75970 = molecular target: T9, MPDZ_12, O75970
T9 sequence (O75970 1857-1958, limits assumed, looked up): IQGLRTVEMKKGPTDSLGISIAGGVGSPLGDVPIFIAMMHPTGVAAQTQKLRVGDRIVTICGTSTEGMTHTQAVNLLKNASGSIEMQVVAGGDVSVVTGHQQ

GRIP1_7, Q9Y3R0 = molecular target: T10, GRIP1_7, Q9Y3R0
T10 sequence (Q9Y3R0 999-1096, limits assumed, looked up): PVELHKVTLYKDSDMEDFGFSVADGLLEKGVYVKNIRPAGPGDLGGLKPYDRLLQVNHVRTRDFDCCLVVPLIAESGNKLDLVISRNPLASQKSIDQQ

DLG4_1, P78352 = molecular target: DLG4_1, P78352
Sequence of DLG4_1, P78352 (P78352 62-152): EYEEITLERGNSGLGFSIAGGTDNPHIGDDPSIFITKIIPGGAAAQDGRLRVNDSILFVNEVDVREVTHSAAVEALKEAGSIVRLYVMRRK

GRID2IP_1, A4D2P6 = molecular target: GRID2IP_1, A4D2P6
Sequence of GRID2IP_1, A4D2P6 (A4D2P6 1-87): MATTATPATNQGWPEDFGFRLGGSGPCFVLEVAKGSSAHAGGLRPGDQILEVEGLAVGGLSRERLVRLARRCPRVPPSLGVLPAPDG

NHERF3_1, Q5T2W1 = molecular target: T11, NHERF3_1, Q5T2W1
T11 sequence (Q5T2W1 4-100, limits assumed, looked up): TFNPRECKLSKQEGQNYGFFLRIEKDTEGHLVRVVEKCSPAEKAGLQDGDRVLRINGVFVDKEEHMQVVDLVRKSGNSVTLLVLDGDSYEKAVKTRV

PARD3_3, Q8TEW0 = molecular target: PARD3_3, Q8TEW0
Sequence of PARD3_3, Q8TEW0 (Q8TEW0 582-685): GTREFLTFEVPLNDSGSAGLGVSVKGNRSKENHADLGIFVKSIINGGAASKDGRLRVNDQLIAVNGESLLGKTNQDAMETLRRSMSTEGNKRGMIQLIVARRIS

APBA2_1, Q99767 = molecular target: T12, APBA2_1, Q99767
T12 sequence (Q99767 563-664, limits assumed, looked up): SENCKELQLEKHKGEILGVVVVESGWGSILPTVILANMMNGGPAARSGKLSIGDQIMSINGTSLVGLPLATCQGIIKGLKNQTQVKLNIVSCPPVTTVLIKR

APBA3_1, O96018 = molecular target: T13, APBA3_1, O96018
T13 sequence (O96018 389-490, limits assumed, looked up): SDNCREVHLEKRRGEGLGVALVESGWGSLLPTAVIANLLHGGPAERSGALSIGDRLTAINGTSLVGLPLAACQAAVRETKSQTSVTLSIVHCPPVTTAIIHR

Binder | pKd (IL16_4, Q14005) | pKd (PARD3B_1, Q8TEW8) | pKd (LDB3, O75112) | pKd (FRMPD4, Q14CM0) | pKd (NOS1, P29475) | pKd (Inadl_3, Q8NI35) | pKd (GRIP1_5, Q9Y3R0) | pKd (FRMPD1, Q5SYB0) | pKd (MAGI2_6, Q86UL8) | pKd (PDLIM1, O00151) | pKd (CARD11, Q9BXL7) | pKd (MAGI2_3, Q86UL8) | pKd (DLG3_1, Q92796) | pKd (MPDZ_5, O75970) | pKd (PDZRN3_1, Q9UPQ7) | pKd (LIN7A, O14910) | pKd (MPDZ_12, O75970) | pKd (GRIP1_7, Q9Y3R0) | pKd (DLG4_1, P78352) | pKd (GRID2IP_1, A4D2P6) | also measured
B1 | 3.6 | below the threshold | below the threshold | below the threshold | below the threshold | 3.75 | 3.55 | below the threshold | below the threshold | below the threshold | below the threshold | 3.63 | 3.51 | 3.53 | below the threshold | below the threshold | below the threshold | below the threshold | 3.98 | below the threshold | pKd (NHERF3_1, Q5T2W1): 3.74; pKd (PARD3_3, Q8TEW0): below the threshold; pKd (APBA2_1, Q99767): below the threshold; pKd (APBA3_1, O96018): below the threshold
B2 | 3.5 | 3.72 | below the threshold | below the threshold | below the threshold | 3.45 | 3.72 | below the threshold | 4.07 | below the threshold | below the threshold | 4.64 | below the threshold | 3.46 | 4.23 | below the threshold | below the threshold | below the threshold | 3.82 | below the threshold | pKd (NHERF3_1, Q5T2W1): 4.03; pKd (PARD3_3, Q8TEW0): 3.55; pKd (APBA2_1, Q99767): below the threshold; pKd (APBA3_1, O96018): below the threshold
B3 | below the threshold | 3.95 | below the threshold | 4.66 | 3.53 | below the threshold | below the threshold | below the threshold | below the threshold | below the threshold | below the threshold | below the threshold | below the threshold | below the threshold | 4.01 | below the threshold | below the threshold | 3.74 | below the threshold | below the threshold | pKd (NHERF3_1, Q5T2W1): 4.78; pKd (PARD3_3, Q8TEW0): 3.89; pKd (APBA2_1, Q99767): below the threshold; pKd (APBA3_1, O96018): below the threshold
